According to publication PMC314469, “Protein Interaction Networks by Proteome Peptide Scanning” (PLoS Biology, 2004):

T1: Boi2 SH3 (BOI2_YEAST), P39969
T1 chain: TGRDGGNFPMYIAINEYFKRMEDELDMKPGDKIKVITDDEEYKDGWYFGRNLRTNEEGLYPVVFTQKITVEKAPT

T2: Yhr016c SH3 (YSC84_YEAST), P32793
T2 chain: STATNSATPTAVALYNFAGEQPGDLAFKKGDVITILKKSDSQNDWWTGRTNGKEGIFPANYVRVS

T3: Rvs167 SH3 (RV167_YEAST), P39743
T3 chain: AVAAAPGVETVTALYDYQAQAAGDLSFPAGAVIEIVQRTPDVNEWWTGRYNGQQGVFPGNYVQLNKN

T4: Myo5 SH3 (MYO5_YEAST), Q04439
T4 chain: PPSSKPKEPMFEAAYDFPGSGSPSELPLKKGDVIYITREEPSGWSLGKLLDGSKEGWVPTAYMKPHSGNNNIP

T5: Boi1 SH3 (BOI1_YEAST), P38041
T5 chain: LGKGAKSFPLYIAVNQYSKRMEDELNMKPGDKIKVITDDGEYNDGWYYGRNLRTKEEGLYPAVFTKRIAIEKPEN

T6: Yfr024 SH3 (LSB3_YEAST), P43603
T6 chain: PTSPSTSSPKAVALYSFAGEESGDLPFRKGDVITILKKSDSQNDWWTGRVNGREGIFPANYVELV


What was measured:
Assay in all cases: SPOT array
[1] = target: T1, Boi2 SH3 (BOI2_YEAST), P39969
[2] = target: Sho1 SH3 (SHO1_YEAST), P40073
[3] = target: T2, Yhr016c SH3 (YSC84_YEAST), P32793
[4] = target: T3, Rvs167 SH3 (RV167_YEAST), P39743
[5] = target: T4, Myo5 SH3 (MYO5_YEAST), Q04439
[6] = target: T5, Boi1 SH3 (BOI1_YEAST), P38041
[7] = target: T6, Yfr024 SH3 (LSB3_YEAST), P43603

Chain of Sho1 SH3 (SHO1_YEAST), P40073 (P40073 295-366): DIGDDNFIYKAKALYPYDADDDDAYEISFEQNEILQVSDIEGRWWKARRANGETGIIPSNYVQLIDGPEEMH

Row | normalised SPOT signal, Boehringer light units (BLU); mean over the file's lines of this peptide [1] | normalised SPOT signal, Boehringer light units (BLU); mean over the file's lines of this peptide [2] | normalised SPOT signal, Boehringer light units (BLU); mean over the file's lines of this peptide [3] | normalised SPOT signal, Boehringer light units (BLU); mean over the file's lines of this peptide [4] | normalised SPOT signal, Boehringer light units (BLU); mean over the file's lines of this peptide [5] | normalised SPOT signal, Boehringer light units (BLU); mean over the file's lines of this peptide [6] | normalised SPOT signal, Boehringer light units (BLU); mean over the file's lines of this peptide [7] | Binder
1 | 33.2 | 27.9 | 17.8 | 24.5 | 161 | 86.2 | 41.1 | ELDIKQGPVRPFIV [YDL095W 18-31]
2 | 47.6 | 2880 | 55.1 | 766 | 548 | 426 | 399 | ETSLRVLPIAPKIF [YDL231C 393-406]
3 | 10.5 | 24.1 | 42.5 | 33.4 | 136 | 48.1 | 202 | EKNARGIPQAPFIE [YGR078C 9-22]
4 | 25 | 38 | 50.2 | 35.7 | 121 | 370 | 643 | ERDGRGVPLGPRNH [YGL023C 22-35]
5 | 23.4 | 23.1 | 40.6 | 11.9 | 96.2 | 93.9 | 7.2 | ETGVRYGPEFPLST [YNL277W 122-135]
6 | 15.1 | 75.6 | 67.9 | 66.3 | 90 | 17400 | 48.5 | EKVFRGDPEHPAIS [YJR010W 130-143]
7 | 13.1 | 38.2 | 32.1 | 46.8 | 297 | 65.4 | 80.9 | EWEEKLTPAGPLSP [YDR402C 463-476]
8 | 43.2 | 1020 | 71.1 | 167 | 178 | 85 | 108 | ETTTRETPLPPIPA [YPL207W 797-810]
9 | 12.1 | 66.3 | 1.6 | 41.8 | 143 | 62.1 | 0 | EKYGKDQPESPVPE [YMR285C 368-381]
10 | 12.9 | 3520 | 24.6 | 22 | 67.7 | 50.9 | 16.2 | ENENKKLPPAPTVF [YKR103W 236-249]
11 | 17.3 | 76.5 | 42.2 | 188 | 171 | 87.9 | 930 | ELQIRYKPTPPLKK [YPL074W 331-344]
12 | 19.1 | 36.8 | 34.6 | 46.5 | 206 | 0 | 61.9 | EKLIKITPDTPFGF [YOR340C 102-115]
13 | 0 | 47.5 | 10.4 | 6.9 | 169 | 46.4 | 0 | EVLRKYIPGEPEFL [YDR023W 429-442]
14 | 24.9 | 39.1 | 14.9 | 44.1 | 40.7 | 31.6 | 1360 | EVENKLRPDLPVKN [YFR030W 637-650]
15 | 24.8 | 44.1 | 12.8 | 98.8 | 53.2 | -0 | 27.4 | ELDTKTIPELPFSM [YJR092W 117-130]
16 | 13.2 | 436 | 2.5 | 28.5 | 256 | 116 | 30.2 | ETKKKWQPLPPEPL [YOR042W 368-381]
